The target in test [1] is biotinylated gp41 MPER peptide RRR-(656-683)-RRK-biotin (HIV-1). In words: SPR: biotinylated MPER peptide on an SA chip, Fab as analyte, 1:1 Langmuir fit. A general note: In SPR one partner is held on a chip, and binding of the other changes the refractive index at the surface.
Test [2] addresses soluble gp41 MPER peptide RRR-(656-683)-RRR (HIV-1). In words: SPR: variant IgG captured on an anti-human IgG chip, MPER peptide as analyte.

In general, Kd refers to the free concentration of one partner at which half of the binding sites on the other are occupied at equilibrium, for simple one-to-one binding.

B1: 10E8 Fab (antigen binding fragment of 10E8) (Fab, V domains shown)
VH: EVQLVESGGGLVKPGGSLRLSCSASGFDFDNAWMTWVRQPPGKGLEWVGRITGPGEGWSVDYAAPVEGRFTISRLNSINFLYLEMNNLRMEDSGLYFCARTGKYYDFWSGYPPGEEYFQDWGRGTLVTVSS
VL: SYELTQETGVSVALGRTVTITCRGDSLRSHYASWYQKKPGQAPILLFYGKNNRPSGVPDRFSGSASGNRASLTISGAQAEDDAEYYCSSRDKSGSRLSVFGGGTKLTVL
Molecule B1 gave a dissociation constant (Kd) in test [1] of 17 nM.

B2: 10E8 IgG alanine variant E53A (heavy chain, Kabat) (antibody, V domains shown)
VH: EVQLVESGGGLVKPGGSLRLSCSASGFDFDNAWMTWVRQPPGKGLEWVGRITGPGAGWSVDYAAPVEGRFTISRLNSINFLYLEMNNLRMEDSGLYFCARTGKYYDFWSGYPPGEEYFQDWGRGTLVTVSS
VL: SYELTQETGVSVALGRTVTITCRGDSLRSHYASWYQKKPGQAPILLFYGKNNRPSGVPDRFSGSASGNRASLTISGAQAEDDAEYYCSSRDKSGSRLSVFGGGTKLTVL
As for B2, the fold decrease in affinity relative to wild type 10E8 in test [2] was found to be 60 fold.

For the origin of these results see patent publication US20140348785A1.
